What is called Kd is the constant that tells how readily two partners part at equilibrium. Low readings indicate tighter binding, high ones weaker binding. As usually defined, the kon is the second-order rate constant of association. Read a low kon as slower complex formation. By koff is commonly meant a measure of how fast the partners let go of each other. A higher koff goes with fast dissociation.

Two molecules from paper PMC11213015 can be followed below.

For this assay, the target named is biotinylated-YE (UpxY of the PSE operon, Bacteroides fragilis) (Bacteroides fragilis NCTC 9343). Kind of assay: BLI.

B1: ZA (UpxZ of the PSA operon, Bacteroides fragilis) (natural protein)
chain: MNQVQNLQHIARELLYLGMDGSPIYTDHFRQLNTEVFRLSEALFSMKGATSEEEAAICLSLLMGYNATIYNDGDKESKIQSILDRSFAVLDHLPASLLKCQLLTYCYGEVFEEDLAQEAHQIMDSWKNRALSEEELEVMETLQTMEDNRYPCSEVED
B1: the Kd was determined as 0.9 nM and the kon is 1.1e+06 M⁻¹ s⁻¹.

B2: ZE (UpxZ of the PSE operon, Bacteroides fragilis) (natural protein)
chain: MNTLMTQIHELQHVAHELLYLGADGSPIYTDSFRQLNTEVLQKSDALFALKGENPEEEARLCLALLMGYNATIYDYGDKESKKQVILDRSLLVLESLPSSLLKCQLLTYCYGEVFEEELAKEAHAIIDYWDNKTLSIDEQETVDMLKMIEENQYPNNYID
Take B2: the Kd turned out to be 88 nM, the koff stood at 0.0096 s⁻¹ and the kon worked out at 110000 M⁻¹ s⁻¹.
